Source: PMC4381055

Assays:
[1] = target: EcoRNAP sigma70 holoenzyme (Escherichia coli) (UniProt P0A7Z4+P0A8V2+P0A8T7+P0A800+P00579); experiment: stopped-flow Cy3 fluorescence enhancement; conditions: scale: fold fluorescence enhancement
[2] = target: EcoRNAP sigma70 holoenzyme (Escherichia coli, UniProt P0A7Z4;P0A8V2;P0A8T7;P0A800;P00579 1-329;1-1342;1-1407;2-91;1-613); experiment: 25 C, no CarD

Molecule	binding signal [1]	apparent K (half saturation) [2] [nM]
template lacking rrnAP3 promoter, Cy3	0.05	
rrnAP3 150 bp template, +2 Cy3 (dsDNA, C6-amine on non-template +2 T) DNA 1: AAAATAGGCGTATCACGAGGCCCTTTCGTCTTCAAGAATTCGTCTTGACTCCATTGCCGGATTTGTATTAGACTGGCAGGGTTGAAGCTTATGTATCACCTGACGTCATGATGAACTCAGAAGTGAAACTACGTATATCCGATGGTAGTG DNA 2: CACTACCATCGGATATACGTAGTTTCACTTCTGAGTTCATCATGACGTCAGGTGATACATAAGCTTCAACCCTGCCAGTCTAATACAAATCCGGCAATGGAGTCAAGACGAATTCTTGAAGACGAAAGGGCCTCGTGATACGCCTATTTT		23
